Data from the supplement of paper PMC7125110.
± gives the standard error. Variants at the floor of the assay were thinned out.

B1: glmS ribozyme (parent)
chain: AUAAAAGCGCCAGAACUACAGAAAUGUAGUUGACGAGGAGGAGGUUUAUCGAAUUUUCGGCGGAUGCCUCCAAA

Key:
Settings in all cases: with glucosamine-6-phosphate
glucosamine-6-phosphate [1] = variants of: B1; test: self-cleavage kobs at 40 uM GlcN6P; higher = faster cleavage; RNA array
Outline: (§1)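 Barcoded ribozyme variants, transcribed in situ by E. coli RNA polymerase on sequenced MiSeq chips, were followed via a hybridised Cy3 probe at 37 °C. Glucosamine-6-phosphate ranged from 40 μM to 10 mM in HEPES/KCl/Mg(OAc)2 buffer. kobs came from decay fits to per-tile medians, and kcat and KM from weighted Michaelis–Menten fits.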

glucosamine-6-phosphate [2] = variants of: B1; test: self-cleavage kobs at 2500 uM GlcN6P; higher = faster cleavage; RNA array
Outline: as §1

glucosamine-6-phosphate [3] = variants of: B1; test: self-cleavage kobs at 160 uM GlcN6P; higher = faster cleavage; RNA array
Outline: as §1

glucosamine-6-phosphate [4] = variants of: B1; test: self-cleavage kobs at 640 uM GlcN6P; higher = faster cleavage; RNA array
Outline: as §1

glucosamine-6-phosphate [5] = variants of: B1; test: self-cleavage kobs at 10000 uM GlcN6P; higher = faster cleavage; RNA array
Outline: as §1

Variant	self-cleavage kobs at 40 uM GlcN6P (glucosamine-6-phosphate [1]) [s⁻¹]	self-cleavage kobs at 2500 uM GlcN6P (glucosamine-6-phosphate [2]) [s⁻¹]	self-cleavage kobs at 160 uM GlcN6P (glucosamine-6-phosphate [3]) [s⁻¹]	self-cleavage kobs at 640 uM GlcN6P (glucosamine-6-phosphate [4]) [s⁻¹]	self-cleavage kobs at 10000 uM GlcN6P (glucosamine-6-phosphate [5]) [s⁻¹]
AUAAAAGCGCUAGAACUACAGAAAUGUAGUAGACGAGUAGGAGGUUUAACGAAGUUUCGGCGGAUGCCUCCAAA	< 1e-05				
AUAAAAGCGCUAGAACUACAGAAAUGUAGUUGACGAGGAGGAGGUUUAUCAAAUUUUCGGCGGAUGCCUCCAAA	< 1e-05	< 1e-05			
AUAAAAGCGCUAGAACUACAGAAAUGUAGUUGACGAGGAGGAGGUUUAUCUAAUUUUCGGCGGAUGCCUCCAAA	< 1e-05	< 1e-05	< 1e-05	< 1e-05	< 1e-05
AUAAAAGCGCCCGAACUACAGAAAUGUAGUUGACGCGGAGGAGGUUUGUCGAAUUUUCGGUGGAUGCCUACAAA	< 1e-05				
AUAAAAGCGCCCGAACUACAGAAAUGUAGUUGACGAGGCGGAGGUUUAUCGAAUUUUCGGCGGAUGGCUCCAAA	< 1e-05				
AUAAAAGCGCUAGAACUACAGAAAUGUAGUUGACGAGUAGGAGGUUUAUCGUAUUUUCGGCGGAUGCCUCCAAA	< 1e-05		< 1e-05	< 1e-05	< 1e-05
AUAAAAGCGCCCGGACUACAGAAAUGUAGUUGACGAGGAGGAGGUUUAUCGAAUUUUCGGCGGAUGCCUCCAAA	0.00067 ± 0.00016	0.0128 ± 0.0023	0.00156 ± 0.00021	0.00653 ± 0.0012	0.0484 ± 0.011
AUAAAAGCGCUAGAACUACAGAAAUGUAGUUGACGAGGAGGAGGUUUAUCGAAUUUUCCGCGGAUGCCUCGAAA	< 1e-05				
AUAAAAGCGCUAGAACUACAGAAAUGUAGUUGACGAAGAGGAGGUUUAUCGAAUUUUCGGCGGAUUCCUCCAAA	< 1e-05				
AUAAAAGCGCCCGAACUACAGAAAUGUAGUUGACGAGGAGGAGGUUUAUCGAUUUUUCGGCUGAUGCCUCCAAA	< 1e-05				< 1e-05
AUAAAAGCGCUAGAACUACAGAAAUGUAGUUGACGAGGAGGAGGUUUAUCGAAUUUUCGUCGGAUGCCUCCAAA	< 1e-05	< 1e-05		< 1e-05	< 1e-05
AUAAAAGCGCUAGAACUACAGAAAUGUAGCUGACGAGGAGGAGGUUUAUUGAAUUUUCGGCGGAUGCCUCCAAA	< 1e-05				< 1e-05
AUAAAAGCGCUAGAACUACAGAAAUGUAGUUGACGAGGAGGAGUUUUAUCGAAUUUUCGGCGGAUGCCUCCAAA	< 1e-05	< 1e-05	< 1e-05	< 1e-05	
AUAAAAGCGCCCGGCCUACAGAAAUGUAGUUGACGAGGAGGAGGUUUAUCGAAUUUUCGGCGGAUGCCUCCAAA	0.000144 ± 2.4e-05	0.00354 ± 0.00082		0.00124 ± 0.0003	
AUAAAAGCGCCCGAACUACUGAAAUGUAGUUGACGAGGAGGAGGUUUAUCGAAUUUUCGGCGGAUGGCUCCAAA	9.99e-05 ± 2.5e-05				0.00115 ± 0.00024
AUAAAAGCGCUAGAACUACAGAAAUGUACUUGACGAGGAGGAGGUUUAUCGAUUUGUCGGCGGAUGCCUACAAA	0.000205 ± 4.8e-05				0.000369 ± 8.6e-05
AUAAAAGCGCUAGAACUACAGAAAUGUAGUUGACGAGGAGUAGGUUUAUCGAAUUUUCGGCGGUUGCCUCCAAA	< 1e-05	< 1e-05	< 1e-05		< 1e-05
AUAAAAGCGCCCGAAGUACAGAAAUGUAGUUGACGAGGAGGAGGUUUAUCGAAUUUUCGGCGGAUGCCUCCAAA	8.16e-05 ± 1.1e-05	0.00161 ± 0.00035	0.000158 ± 3.6e-05	0.00067 ± 0.00012	0.00517 ± 0.00083
AUAAAAGCGCCCGAACUACAGAAAUGUAGUUGACGGGGAGGAGGUUUAUCGAAUUUUCGGCGGAUGCCUCCAAA	< 1e-05	< 1e-05	< 1e-05	< 1e-05	< 1e-05
AUAAAAGCGCUAGAACUACAGAAAUGUAUUUGAUGAGGAGGAGGUUUAUCGAUUUAUCGGCGGAUGCCUCCAAA	< 1e-05	< 1e-05			
AUAAAAGCGCUAGAACUACAGAAAUGUAGUUGACGAGGAGGAGGUUUAUCGAAUUUUCGGCGGAUGCCGCCAAA	5.87e-05 ± 1.4e-05	9.51e-05 ± 2.1e-05	7.55e-05 ± 2.7e-05	0.000286 ± 6.5e-05	5.87e-05 ± 8.8e-06
AUAAAAGCGCCCGAACUACAGAAAUGUAGUUGUCGAGGAGGAGGUUUAUCGAUUUUUCGGCGGAUGCAUCCACA	< 1e-05				
AUAAAAGCGCUAGAACUACAGAAAUGUAGUUGACGAGGAGGAGGUUUGUCGAAUUUUCGGCGGAUGCAUCCAAA	< 1e-05				
AUAAAAGCGCUAGAACUACAGAAAUGUAGUUGACGAGGAGGAGGUUUAUCGAAUUUUCGGCGUAUGCCUCCAAA	< 1e-05	< 1e-05			< 1e-05
AUAAAAGCGCUAGAACUACAGAAAUGUAGUUGACGAGGAGGAGGUUUAUCGAAUUUUCGGCGAAUGCCUCCAAA	< 1e-05	< 1e-05	< 1e-05	< 1e-05	< 1e-05
AUAAAAGCGCUAGAACUACAGAAAUGUAGUUGACGAGGAGGAGGUUUACCGAAUUUUCGGCGGAUGCCUCCAAA	< 1e-05	< 1e-05	< 1e-05	< 1e-05	
AUAAAAGCGCCCGAACUACAGAAAUGUAGUUGACGAGGAGGAGGUUUAUCGAGUUUUCGGCGGAUGCUUCCAAA	6.52e-05 ± 1.6e-05				
